Assay [1] concerns the target T1, Recombinant MSLN Fc fusion protein (R&D: 3265-MS) (UniProt Q13421 296-580).
T1 construct: also called recombinant MSLN fusion protein
The assay can be described thus: SPR; reference v31805.

In assay [2] the target is T2, Recombinant CD3epsilon/delta Fc fusion protein (Sino Biological) (UniProt P07766 23-126; P04234 22-105).
T2 construct: also called recombinant CD3 fusion protein
The experiment in a line: SPR; reference v31805.

The target of assay [3] is T3, mesothelin (MSLN) on MSLN-expressing tumor cells (human, UniProt Q13421 296-598). The assay can be described thus: cell-based or functional assay.
T3 sequence (Q13421 other isoform, or with tags, fused parts or gaps limits assumed): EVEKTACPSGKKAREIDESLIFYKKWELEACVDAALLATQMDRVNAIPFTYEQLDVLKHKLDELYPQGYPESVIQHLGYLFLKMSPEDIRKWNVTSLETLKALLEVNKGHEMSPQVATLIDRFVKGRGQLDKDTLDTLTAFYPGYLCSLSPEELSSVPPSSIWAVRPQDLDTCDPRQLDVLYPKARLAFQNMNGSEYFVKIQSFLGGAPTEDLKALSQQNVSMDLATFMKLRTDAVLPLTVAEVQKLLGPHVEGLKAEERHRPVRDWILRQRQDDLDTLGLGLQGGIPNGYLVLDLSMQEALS
The target of assay [4] is T4, CD3 on CD3+ Jurkat cells and primary human T cells (human, UniProt P07766 23-207).
T4 construct: whole, on cells; also called native CD3; CD3ε
T4 sequence (P07766 23-207): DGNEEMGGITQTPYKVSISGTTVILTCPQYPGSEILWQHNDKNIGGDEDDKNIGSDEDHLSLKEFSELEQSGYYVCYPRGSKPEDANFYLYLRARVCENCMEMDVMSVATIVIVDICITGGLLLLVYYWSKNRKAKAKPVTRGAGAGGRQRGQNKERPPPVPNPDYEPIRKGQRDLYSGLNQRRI
The experiment in a line: flow cytometry on primary human T cells; reference v29191.

Assay [5] has as its target T4, CD3 on CD3+ Jurkat cells and primary …. The experiment in a line: flow cytometry on primary human T cells; reference v31805.
The target in assay [6] is T3, mesothelin (MSLN) on MSLN-expressing …. The assay can be described thus: whole-cell flow cytometry on OVCAR-3 cells, apparent affinity.
Assay [7] has as its target T1, Recombinant MSLN Fc fusion protein …. The experiment in a line: SPR, BioRad ProteOn XPR36, 25 C, MSLN-Fc captured on anti-Fc chip.
For assay [8] the target is unchanged. The experiment in a line: assay not given; matches Table 15 (SPR); reference v31805.
In assay [9] the target is T2, Recombinant CD3epsilon/delta Fc fusion …. The description is as above.
The target of assay [10] is T4, CD3 on CD3+ Jurkat cells and primary …. The experiment in a line: whole-cell flow cytometry on primary human T cells, apparent affinity.
The target in assay [11] is T2, Recombinant CD3epsilon/delta Fc fusion …. The experiment in a line: SPR, BioRad ProteOn XPR36, 25 C, CD3 epsilon/delta-Fc captured on anti-Fc chip.
In assay [12] the target is T3, mesothelin (MSLN) on MSLN-expressing …. The assay can be described thus: flow cytometry on MSLN+ OVCAR-3 cells (Alexa Fluor 647 anti-IgG-Fc, MFI).
Assay [13] deals with T4, CD3 on CD3+ Jurkat cells and primary …. The assay can be described thus: flow cytometry on human pan T cells, CD4+ gate (Alexa Fluor 647 anti-IgG-Fc, MFI).
Assay [14] shares this target. The assay can be described thus: flow cytometry on human pan T cells, CD8+ gate (Alexa Fluor 647 anti-IgG-Fc, MFI).
For assay [15] the target is unchanged. The experiment in a line: flow cytometry on human pan T cells, CD4+ and CD8+ cells together (Alexa Fluor 647 anti-IgG-Fc, MFI).

T2 sequence (P07766 23-126, stated change not applied, chain 1 of 2): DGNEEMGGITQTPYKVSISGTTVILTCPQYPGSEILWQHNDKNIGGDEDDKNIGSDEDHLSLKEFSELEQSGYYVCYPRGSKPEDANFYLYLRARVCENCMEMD
T2 sequence (P04234 22-105, stated change not applied, chain 2 of 2): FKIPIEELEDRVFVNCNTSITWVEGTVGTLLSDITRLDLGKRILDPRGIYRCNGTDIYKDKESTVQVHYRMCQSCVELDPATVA
T1 sequence (Q13421 other isoform, or with tags, fused parts or gaps limits assumed): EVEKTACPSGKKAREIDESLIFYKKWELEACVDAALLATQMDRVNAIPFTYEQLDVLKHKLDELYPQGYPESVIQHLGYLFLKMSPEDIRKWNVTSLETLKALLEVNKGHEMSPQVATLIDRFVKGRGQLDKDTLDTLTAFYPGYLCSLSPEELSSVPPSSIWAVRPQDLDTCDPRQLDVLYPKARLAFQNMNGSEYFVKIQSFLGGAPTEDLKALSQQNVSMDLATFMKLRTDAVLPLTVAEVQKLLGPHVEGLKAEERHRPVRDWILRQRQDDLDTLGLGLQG

B1: v32523, trivalent and bispecific antibody construct [MSLN (2 scFv) x CD3 (1 Fab)] (bispecific antibody, human IgG1, lambda, L234A L235A)
heavy 1: not shown
heavy 2: DIQMTQSPSSLSASVGDRVTITCSASSSVSYMHWYQQKSGKAPKLLIYDTSKLASGVPSRFSGSGSGTDFTLTISSLQPEDFATYYCQQWSGYPLTFGQGTKLEIKGGGGSGGGGSGGGGSGGGGSQVQLVQSGAEVKKPGASVKVSCKASGYSFTGYTMNWVRQAPGQGLEWMGLITPYNGASSYNQKFRGKATMTVDTSTSTVYMELSSLRSEDTAVYYCARGGYDGRGFDYWGQGTLVTVSSAAEPKSSDKTHTCPPCPAPEAAGGPSVFLFPPKPKDTLMISRTPEVTCVVVSVSHEDPEVKFNWYVDGVEVHNAKTKPREEQYNSTYRVVSVLTVLHQDWLNGKEYKCKVSNKALPAPIEKTISKAKGQPREPQVYVLPPSRDELTKNQVSLLCLVKGFYPSDIAVEWESNGQPENNYLTWPPVLDSDGSFFLYSKLTVDKSRWQQGNVFSCSVMHEALHNHYTQKSLSLSPG
light: NFMLTQPHSVSESPGKTVTISCKRNTGNIGSNYVNWYQQHEGSSPTTIIYRNDKRPDGVSDRFSGSIDRSSKSASLTISNLKTEDEADYFCQSYSSGFIFGGGTKLTVLGQPKAAPSVTLFPPSSEELQANKATLVCLISDFYPGAVTVAWKADSSPVKAGVETTTPSKQSNNKYAASSYLSLTPEQWKSHRSYSCQVTHEGSTVEKTVAPTECS
notes: also called construct v32523; stability engineered construct
For the molecule B1, the “fold lower affinity vs v31805” value in [1] was 32 fold; in assay [2], 53 fold; in assay [8], ~30 fold; in assay [9], ~50 fold. Besides, in assay [3], the “IC50 of T cell-dependent cytotoxicity on HCT116 cells (pan T cells, E:T 5:1, 72 h)” value worked out at 1.1 pM. Further, the “fold lower apparent affinity vs v29191” value in assay [4] is ~2.7 fold. In addition, the “fold lower apparent affinity vs v31805” value in [5] was ~8.6 fold. The EC50 is 2.8 nM in [6] and 50.5 nM in [10]. In addition, the Kd is 1.01 nM in assay [7] and 40.1 nM in assay [11]. The dissociation rate constant (koff) was found to be 0.000719 s⁻¹ in assay [7] and 0.0112 s⁻¹ in assay [11]. Also, the results for the kon in assay [7] and in [11] were 714000 M⁻¹ s⁻¹ and 279000 M⁻¹ s⁻¹, respectively. Also, the concentration for a half-maximal effect (EC50 (read off the curve)) is ~3 nM in [12], ~60 nM in assay [13], ~80 nM in assay [14] and ~60 nM in assay [15].
